From publication PMC9204493 come the findings set out here.

Test in all cases: SEC-MALS; Superose 6 Increase 10/300, 1x PBS pH 7.4, 0.4 mL/min, non-denaturing; self-assembly of the fusion protein into the nanoparticle
The target of assay [1] is Encapsulin-pH1HA10 (Myxococcus xanthus) (UniProt Q1D6H4).
The target in assay [2] is MsDps2-pH1HA10 (Mycobacterium smegmatis).
The target of assay [3] is pH1HA10-Ferritin (Helicobacter pylori) (UniProt Q9ZLI1).

As usually defined, the stoichiometry N is a count of units in the complex or per binding partner. On to “Encapsulin-pH1HA10 (from UniProt Q1D6H4 1-287)”, for which the stoichiometry N in assay [1] came out at 180.

In assay [2], MsDps2-pH1HA10 showed a stoichiometry N of 12.

In turn, “pH1HA10-Ferritin (from UniProt Q9ZLI1 1-163)” displayed a stoichiometry N in assay [3] of 24.
